Assay results reported in patent US20090123479A1 (published 2009).

T1: recombinant human IL-23 (human, UniProt Q9NPF7 20-189; P29460 23-328)
T1 construct: also called hIL-23
T1 sequence 1: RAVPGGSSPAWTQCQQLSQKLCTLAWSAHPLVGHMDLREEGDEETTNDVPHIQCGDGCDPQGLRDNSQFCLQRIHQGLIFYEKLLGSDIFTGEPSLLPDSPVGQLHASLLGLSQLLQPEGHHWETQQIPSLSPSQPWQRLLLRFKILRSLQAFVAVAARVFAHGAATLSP
T1 sequence 2: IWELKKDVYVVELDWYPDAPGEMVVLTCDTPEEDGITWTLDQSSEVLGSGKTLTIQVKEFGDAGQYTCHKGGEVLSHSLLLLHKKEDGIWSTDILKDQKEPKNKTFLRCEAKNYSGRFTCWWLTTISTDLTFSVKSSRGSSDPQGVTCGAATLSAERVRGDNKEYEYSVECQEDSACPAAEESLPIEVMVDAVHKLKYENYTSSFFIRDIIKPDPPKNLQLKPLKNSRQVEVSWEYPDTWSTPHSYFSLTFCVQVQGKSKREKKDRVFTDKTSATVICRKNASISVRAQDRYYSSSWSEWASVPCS

T2: recombinant cynomologus IL-23 (cynomolgus, limits assumed)
T2 construct: also called cynomolgus IL-23; cyno IL23
T2 chain 1: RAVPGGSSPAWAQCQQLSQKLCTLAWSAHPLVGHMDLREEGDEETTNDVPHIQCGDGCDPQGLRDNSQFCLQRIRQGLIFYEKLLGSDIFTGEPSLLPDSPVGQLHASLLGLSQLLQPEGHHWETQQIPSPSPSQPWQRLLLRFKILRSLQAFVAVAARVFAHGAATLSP
T2 chain 2: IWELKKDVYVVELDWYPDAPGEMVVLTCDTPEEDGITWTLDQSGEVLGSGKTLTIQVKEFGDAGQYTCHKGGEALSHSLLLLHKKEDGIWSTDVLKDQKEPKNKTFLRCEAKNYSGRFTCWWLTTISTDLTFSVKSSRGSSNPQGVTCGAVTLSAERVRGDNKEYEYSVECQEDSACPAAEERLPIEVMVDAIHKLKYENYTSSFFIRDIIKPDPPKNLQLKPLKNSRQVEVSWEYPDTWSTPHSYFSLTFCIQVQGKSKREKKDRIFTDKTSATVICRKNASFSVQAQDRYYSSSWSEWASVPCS

T3: Endogenous human IL-23 (human, UniProt Q9NPF7 20-189; P29460 23-328)
T3 construct: also called endogenous human IL-23 from stimulated dendritic cells
T3 sequence 1: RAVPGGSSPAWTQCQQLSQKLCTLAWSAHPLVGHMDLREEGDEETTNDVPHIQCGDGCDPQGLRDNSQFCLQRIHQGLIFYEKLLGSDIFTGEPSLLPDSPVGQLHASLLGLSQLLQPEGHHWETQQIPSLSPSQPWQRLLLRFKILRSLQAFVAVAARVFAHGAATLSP
T3 sequence 2: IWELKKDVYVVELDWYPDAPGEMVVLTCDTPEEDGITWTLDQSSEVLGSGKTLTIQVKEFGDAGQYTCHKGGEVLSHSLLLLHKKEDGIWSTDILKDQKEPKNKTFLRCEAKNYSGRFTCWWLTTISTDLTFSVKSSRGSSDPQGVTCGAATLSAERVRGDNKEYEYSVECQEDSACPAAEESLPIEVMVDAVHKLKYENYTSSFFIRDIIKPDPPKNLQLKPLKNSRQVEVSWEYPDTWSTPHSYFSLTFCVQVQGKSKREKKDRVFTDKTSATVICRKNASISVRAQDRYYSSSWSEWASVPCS


Columns and labels:
[1] = target: T1, recombinant human IL-23; test: SPR (Biacore 3000), hybridoma supernatant mAb captured on anti-murine IgG, human IL-23 analyte, 1:1 model, 25 C
Protocol: (§1) Anti-murine IgG was immobilised on a CM5 sensorchip using amine coupling chemistry. Anti-IL-23 hybridoma antibody sample was injected over the surface and the murine mAb captured. Subsequently recombinant human IL-23, recombinant cynomologus IL-23 or recombinant human IL-12 was flowed over the captured antibody surface at 5 different concentrations (range 0 nM-91 nM) to obtain binding sensorgrams. Regeneration of the surface after antibody and antigen injections was done by injecting 0.1 M phosphoric acid for 3 minutes. Double referencing was used on all sensorgrams with a buffer injection over the anti-murine IgG sensorchip surface. The experiment was performed at 25° C. in HBS-EP buffer. Resulting sensorgram data was analysed using the 1:1 binding model incorporated within the Biaevaluation software for the Biacore 3000 instrument. Data presented in Table 2 are from using hybridoma supernatant taken from a tissue culture flask.

[2] = target: T2, recombinant cynomologus IL-23; test: SPR (Biacore 3000), hybridoma supernatant mAb captured on anti-murine IgG, cynomologus IL-23 analyte, 1:1 model, 25 C
Protocol: as §1

[3] = target: T3, Endogenous human IL-23; test: receptor inhibition ELISA: plate coated with recombinant human IL-23 receptor, endogenous human IL-23 at 3.5 ng/ml pre-incubated with titrated purified antibody, bound IL-23 detected with biotinylated anti-human IL-12; 1% BSA
Protocol: Recombinant human IL-23 Receptor (R&D systems 1400-IR-050) was coated onto 96 well plates at a concentration of 1 μg/ml. Endogenous human IL-23 at 3.5 ng/ml final, was pre incubated for 1 hour with a titration of purified antibody material before being added to the pre-coated plates. Detection was performed with biotinylated anti-human 1L12 (R&D systems BAF-219) followed by Streptavidin-HRP (GE Healthcare RPN 4401). This neutralisation ELISA used 1% BSA.

[4] = target: T1, recombinant human IL-23; test: SPR (Biacore 3000), CHO supernatant antibody captured on Protein A or anti-human IgG, IL-23 analyte at 256, 64, 16, 4 nM
[5] = target: T1, recombinant human IL-23; test: SPR (Biacore T100), CHO supernatant antibody captured on Protein A or anti-human IgG, IL-23 analyte at 256, 64, 16, 4, 1 nM
[6] = target: T1, recombinant human IL-23; test: sandwich ELISA (optimised protocol, OD450): plate coated with anti-human IL-12, antibody pre-incubated with constant human IL-23, bound antibody detected with anti-human IgG gamma chain HRP; purified antibody
Protocol: Optimised assay conditions: Plates were coated with anti human IL12 at 2 μg/diluent (phosphate buffered saline). 50 μl/well of this mixture was incubated overnight at 4° C. The plates were then washed three times with Phosphate Buffered Saline with 0.05% Tween 20 (PBST). Plates were blocked with 4% skim milk powder (Fluka BioChemika #70166) PBS 200 μl/well for a minimum of 1 hour at room temperature. The plates were then washed three times with Phosphate Buffered Saline+0.05% Tween 20 (PBST). Various concentrations of antibody were incubated in a separate plate with a constant concentration of IL-23 for 1 hour at room temperature. 50 ul of each mixture were transferred to the assay plate and incubated at RT for 1 hr. They were then washed three times with Phosphate Buffered Saline+0.05% Tween 20 (PBST). […] 50 μl/well of the detection antibody was added and incubated at RT for 1 hour. The plates were then washed three times with Phosphate Buffered Saline+0.05% Tween 20 (PBST). 50 μl/well of TMB was added to the plates and incubated at RT for 10 min. 50 μl/well of 1 MH₂SO₄ was added. The plate was read at OD450 nm using the SOftmaxPRO versamax plate reader.

[7] = target: T1, recombinant human IL-23; test: IL-23/IL-23R inhibition ELISA (optimised protocol, OD450): plate coated with human IL23R Fc chimera, antibody pre-incubated with constant human IL-23, bound IL-23 detected with biotinylated anti-human IL-12; purified antibody
Protocol: (§2) Optimised protocol: Plates were coated with human IL23R Fc chimera at […] (phosphate buffered saline). 50 μl/well of this mixture was incubated overnight at 4° C. The plates were then washed three times with Phosphate Buffered Saline with 0.05% Tween 20 (PBST). Plates were blocked with 4% skim milk powder (Fluka BioChemika #70166) PBST 100 μl/well for a minimum of 1 hour at room temperature. The plates were then washed three times with Phosphate Buffered Saline+0.05% Tween 20 (PBST). Various concentrations of antibody were incubated in a separate plate with a constant concentration of IL-23 for 1 hour at room temperature. 50 ul of each mixture were transferred to the assay plate and incubated at RT for 1 hr. They were then washed three times with Phosphate Buffered Saline+0.05% Tween 20 (PBST). Bound IL23 was detected by anti human 1L12 Biotin labelled Ab (R&D systems BAF219) diluted to 100 ng/ml in 4% skim milk powder (Fluka BioChemika #70166) PBST. 50 μl/well of the biotinylated antibody was added and incubated at RT for 1 hour. The plates were then washed three times with Phosphate Buffered Saline+0.05% Tween 20 (PBST). SA HRP (GE healthcare RPN4401) was diluted 1/4000 in 4% skim m ilk powder (Fluka BioChemika #70166) PBS, 50 μl/well was added to the plates. The plates were then washed three times with Phosphate Buffered Saline+0.05% Tween 20 (PBST). 50 ul/well of TMB was added to the plates and incubated at RT for 15 min. 25 μl/well of 3 MH₂SO₄ was added to the wells already containing TMB. The plate was read at OD450 nm using the SOftmaxPRO versamax plate reader.

[8] = target: T1, recombinant human IL-23; test: IL-23/IL-23R inhibition ELISA (first protocol, OD490): plate coated with human IL23R Fc chimera, antibody pre-incubated with constant human IL-23, bound IL-23 detected with biotinylated anti-human IL-12; tissue culture supernatant
Protocol: Chimeric and humanized mAbs were assessed for their ability to neutralise human IL-23 binding to human IL-23 receptor, and cyno IL23 binding to human IL23 receptor. Plates were coated with human IL23R Fc chimera at 1 μg/diluent (bicarbonate buffer). 50 μl/well of this mixture was incubated overnight at 4° C. The plates were then washed twice with Tris Buffered Saline with 0.05% Tween 20 (TBST). Plates were blocked with 1% BSA TBST 100 μl/well for a minimum of 1 hour at room temperature. The plates were then washed twice with Tris Buffered Saline with 0.05% Tween 20 (TBST). Various concentrations of antibody were incubated in a separate plate with a constant concentration of IL-23 for 1 hour at room temperature. 50 ul of each mixture were transferred to the assay plate and incubated at RT for 1 hr. They were then washed twice with Tris Buffered Saline with 0.05% Tween 20 (TBST). Bound IL23 was detected by anti human 1L12 Biotin labelled Ab (R&D systems BAF219) diluted to 100 ng/ml in 1% BSA TBST. 50 μl/well of the biotinylated antibody was added and incubated at RT for 1 hour. The plates were then washed twice with Tris Buffered Saline with 0.05% Tween 20 (TBST). ExtrAvidin-Peroxidase (Sigma E2886) was diluted 1/1000 in 1% BSA TBST, 50 μl/well was added to the plates. […] The plate was read at OD490 nm using the SOftmaxPRO versamax plate reader.

[9] = target: T2, recombinant cynomologus IL-23; test: IL-23/IL-23R inhibition ELISA (optimised protocol, OD450): plate coated with human IL23R Fc chimera, antibody pre-incubated with constant cynomolgus IL-23, bound IL-23 detected with biotinylated anti-human IL-12; purified antibody
Protocol: as §2

Row | Kd [1] [nM] | koff [1] [s⁻¹] | kon [1] [M⁻¹ s⁻¹] | Kd [2] [nM] | koff [2] [s⁻¹] | kon [2] [M⁻¹ s⁻¹] | IC50 (read off the curve) [3] [µg/mL] | Kd [4] [nM] | koff [4] [s⁻¹] | kon [4] [M⁻¹ s⁻¹] | Kd [5] [nM] | koff [5] [s⁻¹] | kon [5] [M⁻¹ s⁻¹] | EC50 (read off the curve) [6] [nM] | IC50 (read off the curve) [7] [nM] | IC50 (read off the curve) [8] [µg/mL] | IC50 (read off the curve) [9] [nM] | Binder
1 | 2.99 | 0.000301 | 101000 | 3.38 | 0.000369 | 110000 | ~0.06 | – | – | – | – | – | – | – | – | – | – | murine mAb 8C9 2H6 (antibody, V domains shown, Murine hybridoma antibody; also called mouse parental; IL-23 murine 8C92H6 mAb) VH: QVQLQQSGAELARPGTSVKLSCKASGYTFTSYGITWVKQRTGQGLEWIGENYPRSGNTYYNEKFKGKATLTADKSSSTAYMELRSLTSEDSAVYFCARCEFISTVVAPYYYALDYWGQGTSVTVSS VL: DIVLTQSPASLAVSLGQKATISCKASKKVTIFGSISALHWYQQKPGQPPKLIYNGAKLESGVSARFSDSGSQNRSPFGNQLSFTLTIDPVEADDAATYYCLQNKEVPYTFGGGTKLEIK
2 | – | – | – | – | – | – | – | 1.5 | 0.00036 | 240000 | 2.4 | 0.00031 | 130000 | ~0.04 | ~0.5 | ~0.01 | ~0.8 | A3M1 (antibody, human IgG1, kappa, V domains shown, Full length chains) VH: QVQLVQSGAEVKKPGSSVKVSCKASGYTFTSYGITWVRQAPGQGLEWMGENYPRSGNTYYNEKFKGRVTITADKSTSTAYMELSSLRSEDTAVYYCARSEFISTVVAPYYYALDYWGQGTLVTVSS VL: DIVMTQSPDSLAVSLGERATINCKASKKVTIFGSISALHWYQQKPGQPPKLIYNGAKLESGVSDRFSDSGSQNRSPFGNQLSFTLTISSLQAEDVAVYYCLQNKEVPYTFGGGTKVEIKR
3 | – | – | – | – | – | – | – | 2.3 | 0.00039 | 170000 | 4.1 | 0.00035 | 84000 | ~0.04 | ~1 | – | ~0.9 | A3N1 (antibody, human IgG1, kappa, V domains shown, Full length chains) VH: QVQLVQSGAEVKKPGSSVKVSCKASGYTFTSYGITWVRQAPGQGLEWMGENYPRSGNTYYNEKFKGRVTITADKSTSTAYMELSSLRSEDTAVYYCARSEFISTVVAPYYYALDYWGQGTLVTVSS VL: DIVMTQTPLSLSVTPGQPASISCKASKKVTIFGSISALHWYLQKPGQPPQLIYNGAKLESGVSDRFSDSGSQNRSPFGNQLSFTLKISRVEAEDVGVYYCLQNKEVPYTFGGGTKVEIKR
4 | – | – | – | – | – | – | – | 1.5 | 0.00041 | 280000 | 1.6 | 0.00038 | 240000 | ~0.04 | ~0.8 | – | ~1 | A3N2 (antibody, human IgG1, kappa, V domains shown, Full length chains) VH: QVQLVQSGAEVKKPGSSVKVSCKASGYTFTSYGITWVRQAPGQGLEWMGENYPRSGNTYYNEKFKGRVTITADKSTSTAYMELSSLRSEDTAVYYCARSEFISTVVAPYYYALDYWGQGTLVTVSS VL: DIVMTQTPLSLSVTPGQPASISCKASKKVTIFGSISALHWYLQKPGQPPQLIYNGAKLESGVSDRFSDSGSGTDFTLKISRVEAEDVGVYYCLQNKEVPYTFGGGTKVEIKR
